Reference: article PMC5461540, “MOB1 Mediated Phospho-recognition in the Core Mammalian Hippo Pathway” (Molecular & Cellular Proteomics : MCP, 2017)

Molecular target: MOB1B 2-216 (UniProt Q7L9L4)
Test: SPOT peptide array overlaid with GST-MOB1B

| Substance | binding against the reference (reference: nonphosphorylated T353 15-mer, sites T353) | binding against the reference (reference: nonphosphorylated T367 15-mer, sites T367) |
| --- | --- | --- |
| MST1 (from UniProt Q13043) pT353 15-mer | stronger |  |
| MST1 (from UniProt Q13043) pT367 15-mer |  | stronger |
